The numbers were not newly measured in article PMC4610412, which cites them from elsewhere.

Usually Kd stands for the constant that tells how readily two partners part at equilibrium.

In this data set the target is pCdc25C (Homo sapiens) (UniProt P30307). Kind of data set: ITC.
pCdc25C (Homo sapiens), sequence (P30307 2-473): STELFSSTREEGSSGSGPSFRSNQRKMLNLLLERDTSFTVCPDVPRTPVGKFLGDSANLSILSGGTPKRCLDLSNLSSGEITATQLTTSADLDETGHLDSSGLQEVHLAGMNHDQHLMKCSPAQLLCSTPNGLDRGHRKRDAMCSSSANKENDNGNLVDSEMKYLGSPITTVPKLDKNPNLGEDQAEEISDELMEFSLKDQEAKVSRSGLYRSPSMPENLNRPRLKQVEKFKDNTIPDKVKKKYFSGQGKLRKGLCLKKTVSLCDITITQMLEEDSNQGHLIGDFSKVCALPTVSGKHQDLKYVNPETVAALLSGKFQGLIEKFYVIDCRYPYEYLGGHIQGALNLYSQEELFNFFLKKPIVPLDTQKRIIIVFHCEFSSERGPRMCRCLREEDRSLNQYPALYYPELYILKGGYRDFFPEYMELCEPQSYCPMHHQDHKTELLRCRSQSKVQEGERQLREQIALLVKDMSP

Pin1 PPIase, sequence (Q13526 52-163): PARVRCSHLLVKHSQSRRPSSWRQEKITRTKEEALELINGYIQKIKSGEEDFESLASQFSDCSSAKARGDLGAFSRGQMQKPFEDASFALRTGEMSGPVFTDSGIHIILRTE
Pin1 WW, sequence (Q13526 2-42): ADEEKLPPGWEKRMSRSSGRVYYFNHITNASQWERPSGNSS

In the case of Pin1 WW (from UniProt Q13526), the Kd is 13 µM.
As for Pin1 PPIase (from UniProt Q13526), the Kd is 1000 µM.
